# Laboratory results published in PMC5435087.
# Experiments:
# Assay in all cases: BLI
# [1] = system: ancAnimal dsrm2 (reconstructed ancestor (animal)); details: steady state; initial-rate Km 22.9 uM; Label-free kinetics assay (ForteBio, biotinylated RNA on streptavidin probes, biocytin block), 1x Kinetics Buffer, pH 7; temperature and salt not stated …
# [2] = system: ancestral dsrm1 before Rosid shift (reconstructed ancestor (plant)); details: Label-free kinetics assay (ForteBio, biotinylated RNA on streptavidin probes, biocytin block), 1x Kinetics Buffer, pH 7; temperature and salt not stated …
# [3] = system: ancAnimal dsrm3 (reconstructed ancestor (animal)); details: steady state; initial-rate Km 4.1 uM; Label-free kinetics assay (ForteBio, biotinylated RNA on streptavidin probes, biocytin block), 1x Kinetics Buffer, pH 7; temperature and salt not stated …
# [4] = system: Eutherian PRKRA dsrm2 (reconstructed ancestor (Eutheria)); details: Label-free kinetics assay (ForteBio, biotinylated RNA on streptavidin probes, biocytin block), 1x Kinetics Buffer, pH 7; temperature and salt not stated …; scale: fold higher affinity than ancestral mammal PRKRA dsrm2
# [5] = system: ancAnimal dsrm (reconstructed ancestor (animal)); details: Label-free kinetics assay (ForteBio, biotinylated RNA on streptavidin probes, biocytin block), 1x Kinetics Buffer, pH 7; temperature and salt not stated …
# [6] = system: ancPlant dsrm2 (reconstructed ancestor (plant)); details: steady state; initial-rate Km 4.2 uM; Label-free kinetics assay (ForteBio, biotinylated RNA on streptavidin probes, biocytin block), 1x Kinetics Buffer, pH 7; temperature and salt not stated …
# [7] = system: Rosid dsrm1 (reconstructed ancestor (Rosids)); details: Label-free kinetics assay (ForteBio, biotinylated RNA on streptavidin probes, biocytin block), 1x Kinetics Buffer, pH 7; temperature and salt not stated …
# [8] = system: ancAnimal dsrm + dsrm1 substitutions (reconstructed ancestor (animal)); details: Label-free kinetics assay (ForteBio, biotinylated RNA on streptavidin probes, biocytin block), 1x Kinetics Buffer, pH 7; temperature and salt not stated …
# [9] = system: ancestral plant DRB4 dsrm1 (before Fabaceae shift) (reconstructed ancestor (plant)); details: Label-free kinetics assay (ForteBio, biotinylated RNA on streptavidin probes, biocytin block), 1x Kinetics Buffer, pH 7; temperature and salt not stated …
# [10] = system: ancPlant dsrm2 H31L (reconstructed ancestor (plant)); details: Label-free kinetics assay (ForteBio, biotinylated RNA on streptavidin probes, biocytin block), 1x Kinetics Buffer, pH 7; temperature and salt not stated …; scale: fold change in Kd
# [11] = system: Boreoeutherian TARBP2 dsrm1 (reconstructed ancestor (Boreoeutheria)); details: Label-free kinetics assay (ForteBio, biotinylated RNA on streptavidin probes, biocytin block), 1x Kinetics Buffer, pH 7; temperature and salt not stated …; scale: fold lower affinity than ancestral TARBP2 dsrm1
# [12] = system: ancAnimal dsrm1 (reconstructed ancestor (animal)); details: steady state; initial-rate Km 4.2 uM; Label-free kinetics assay (ForteBio, biotinylated RNA on streptavidin probes, biocytin block), 1x Kinetics Buffer, pH 7; temperature and salt not stated …
# [13] = system: ancPlant dsrm + dsrm2 alpha2 (reconstructed ancestor (plant)); details: Label-free kinetics assay (ForteBio, biotinylated RNA on streptavidin probes, biocytin block), 1x Kinetics Buffer, pH 7; temperature and salt not stated …
# [14] = system: ancAnimal dsrm + dsrm3 substitutions (reconstructed ancestor (animal)); details: Label-free kinetics assay (ForteBio, biotinylated RNA on streptavidin probes, biocytin block), 1x Kinetics Buffer, pH 7; temperature and salt not stated …
# [15] = system: ancPlant dsrm (reconstructed ancestor (plant)); details: Label-free kinetics assay (ForteBio, biotinylated RNA on streptavidin probes, biocytin block), 1x Kinetics Buffer, pH 7; temperature and salt not stated …
# [16] = system: ancestral plant DRB4 dsrm1 + H31 (reconstructed ancestor (plant)); details: Label-free kinetics assay (ForteBio, biotinylated RNA on streptavidin probes, biocytin block), 1x Kinetics Buffer, pH 7; temperature and salt not stated …; scale: fold higher affinity than ancestral plant DRB4 dsrm1
# [17] = system: ancPlant DRB6 dsrm2 (reconstructed ancestor (plant)); details: steady state; initial-rate Km 24.8 uM; Label-free kinetics assay (ForteBio, biotinylated RNA on streptavidin probes, biocytin block), 1x Kinetics Buffer, pH 7; temperature and salt not stated …
# [18] = system: ancestral TARBP2 dsrm1 + QV insertion (reconstructed ancestor (mammal)); details: Label-free kinetics assay (ForteBio, biotinylated RNA on streptavidin probes, biocytin block), 1x Kinetics Buffer, pH 7; temperature and salt not stated …; scale: fold lower affinity than ancestral TARBP2 dsrm1
# [19] = system: ancPlant DRB4 dsrm1 (reconstructed ancestor (plant)); details: steady state; initial-rate Km 38.3 uM; Label-free kinetics assay (ForteBio, biotinylated RNA on streptavidin probes, biocytin block), 1x Kinetics Buffer, pH 7; temperature and salt not stated …
substance,measurement,setting,value
short dsRNA,Kd,[1],24.6 µM
same,Kd,[2],4.41 pKd
same,Kd,[3],3.2 µM
same,binding signal,[4],3.79
same,Kd,[5],17.2 µM
same,Kd,[6],5.2 µM
same,Kd,[7],4.89 pKd
same,binding signal (fold higher affinity than ancAnimal dsrm),[8],3
same,Kd,[9],4.31 pKd
same,binding signal,[10],6.6
same,binding signal,[11],10
same,Kd,[12],4 µM
same,binding signal (fold higher affinity than ancPlant dsrm),[13],9.1
same,binding signal (fold higher affinity than ancAnimal dsrm),[14],4.3
same,Kd,[15],59.2 µM
same,binding signal,[16],8.1
same,Kd,[17],24.4 µM
same,binding signal,[18],10
same,Kd,[19],38.9 µM
